“And” between values parts separate entries of the source, which are not always exact repeats. Equal entries are not always repeated.
Legend:
[1] = molecular target: integrin αIIb peptide (Homo sapiens) (UniProt P08514); experiment: SPR; settings: cited from earlier work
human CIB2 [2] = molecular target: T1, human CIB2 (Homo sapiens, UniProt O75838); experiment: SPR interaction of α7B peptides with immobilized CIB2; assay type: binding; settings: His-CIB2 capture (7.5 µM peptide, or 230 nM–30 μM) and amine-coupled untagged CIB2 (7.5–30 µM); 1 mM Mg^2+, 2 mM Ca^2+; experiments repeated 4 times
T1 construct: made in house
T1 sequence (O75838 1-187): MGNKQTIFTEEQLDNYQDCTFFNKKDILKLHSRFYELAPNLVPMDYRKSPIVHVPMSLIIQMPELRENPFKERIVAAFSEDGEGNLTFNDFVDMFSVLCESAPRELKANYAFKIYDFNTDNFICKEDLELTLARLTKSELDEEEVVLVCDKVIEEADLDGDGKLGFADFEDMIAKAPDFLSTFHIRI
Description: SPR was also used to study quantitatively the interaction of CIB2 with one of its established targets, namely the cytoplasmic domain of integrin α7B[3],[7]. Three different peptides were used in the interaction experiments. A peptide corresponding to the membrane proximal segment of the cytoplasmic domain of α7B integrin (α7B_M), another peptide with the same amino acid content, but randomized sequence (α7B_Scrb) and a peptide covering the C-terminal region of the cytoplasmic domain of α7B integrin (α7B_C). Three different approaches were used. In a first approach, His-tagged CIB2 was initially coupled to the surface of a His-cap sensor chip (see Methods), thus ensuring homogeneous site-specific orientation, and then blocked via standard amine coupling. […] The minor differences in the spectra at the level of the phenylalanine band can be ascribed to the TEV-protease recognition site (ENLYFQ), uncleaved in the His-tagged protein. […] In a third approach, we used the same low levels of CIB2 immobilization via amine coupling described in the experiments to probe CIB2 dimerization (100–200 RU) and flowed the three peptides.
The second approach (direct peptide immobilization) led to very low signals and unreproducible results and was not pursued any further. […] In spite of such differences, which might reflect both the heterogeneity of the surface and the different chemistry of immobilization, interaction results were consistent with one another. […] It should be noted that both Huang et al.[7] and Häger et al.[3] used peptides from mouse integrin, while we used the corresponding human sequences, which in the case of α7B_C lacks the tryptophan residue present in the mouse sequence. It is not uncommon that fluorescence spectroscopy interaction studies based on the peptide intrinsic fluorescence (CIB2 has no tryptophan residue) reveal some non-specific binding, especially when a highly hydrophobic protein such as CIB2 is the ligand. […] It cannot be excluded that a similar phenomenon occurred for murine α7B_C in the work by Häger et al.[3]. Our present results, based on accurate, label-free interaction studies clearly identify the region covered by α7B_M as the preferential binding site of CIB2 with α7B integrin.
SPR titrations of α7B_M over homogeneously coupled CIB2 (approach 1) gave very reproducible results and were performed both in the presence of 1 mM Mg^2+ and in the co-presence of 1 mM Mg^2+ and 2 mM Ca^2+. Peptide concentration was varied in the 230 nM–30 μM range. As anticipated, sensorgrams could not fit to a 1:1 binding model, and the kinetic model that better fit the data was a bivalent analyte model (see Methods), in which one α7B_M peptide could bind to two CIB2 molecules. According to this scheme, binding of the peptide to the first CIB2 molecule would direct the binding to the second one, thus resulting in two sets of kinetic constants.
Details of the protein and peptide immobilization procedures and experimental settings are elucidated in the Supplementary Information.
Kinetic data were fitted according to a bivalent analyte model, were a CIB2 monomer (L) can bind an α7B_M peptide (A), and the resulting complex (AL) can bind to a second CIB2 molecule (AL2), with all processes being possibly reversible, as follows: A+L→ka1ALAL→kd1A+LAL+L→ka2AL2AL2→kd2AL+L […]

CIB2 [3] = settings: peptide intrinsic fluorescence; cited from earlier work
Description: In a recent study[8] we investigated the capability of CIB2 to bind Ca^2+ and Mg^2+ thereby switching to a functionally distinct structural state. By integrating several biochemical and biophysical techniques we could establish that in the absence of any cation CIB2 forms a molten globule state that essentially lacks tertiary structure. […] This is quite unusual for Ca^2+-sensor pro ... || The second approach (direct peptide immobilization) led to very low signals and unreproducible results and was not pursued any further. […] In spite of such differences, which might ... || Interaction with α7B occurs in the region proximal to the membrane and not close to the C-terminus of the cytosolic domain of the integrin. The recognition between CIB2 and the α7B target is kinetically favored in the presence of physiological Mg^2+ and in the absence of Ca^2+ and it might induce binding of another CIB2 molecule. […] However, CIB2 per se binds a single peptide as a monomer, and the complex could then induce CIB2 dimerization, ...

human CIB2 [4] = molecular target: T1, human CIB2; experiment: Cross-linking (DSBU)/MALDI-TOF-MS of CIB2 with α7B peptides; assay type: binding; settings: 10 µM CIB2, 5, 10, 20 µM peptide, 50-fold DSBU; 20 mM HEPES pH 7.5, 1 mM Mg^2+, 2 mM Ca^2+, room temperature
Protocol: CIB2 samples were cross-linked with DSBU in the presence of peptide α7B_M or α7B_Scrb as described in ref.[14] Briefly, 10 µM CIB2 was diluted in 20 mM HEPES, pH 7.5, 1 mM DTT, 1 mM Mg^2+ and 2 mM Ca^2+ and incubated with increasing peptide concentrations (5 µM, 10 µM, and 20 µM) for 10 min at room temperature. Then, 50-fold molar excess of DSBU was added and the reactions were conducted for 20 min at room temperature. As control, CIB2 was treated with DSBU without peptide. Reactions were blocked by adding ammonium bicarbonate to a final concentration of 20 mM.
Cross-linked CIB2 samples were desalted via ZipTip C4 tips (Millipore) before MALDI-TOF-MS analysis (Ultraflex III MALDI-TOF/TOF mass spectrometer, Bruker Daltonik, Bremen) was conducted using sinapinic acid as matrix. For further details see Supplementary Methods. Baseline subtraction and spectra smoothing were performed. […]
Cross-linking reactions and Mass Spectrometry
Cross-linking reactions were performed with 10 µM CIB2 (in 20 mM HEPES pH 7.5, 150 mM KCl, 1 mM DTT, 1 mM Mg2+, 2 mM Ca2+) and increasing concentrations of peptides α7B_M and α7B_Scrb, ranging from 0.5:1 to 2:1 peptide:protein ratios. After incubating the samples for 10 minutes at room temperature, DSBU (freshly prepared solution, dissolved in neat DMSO) was added to the mixture at 50-fold molar excess compared to CIB2 concentration. As the final volume of the reaction mixture was 50 µL, 1 µL of 25 mM DSBU was added to each sample. After 20 minutes, the cross-linking reactions were quenched by adding ammonium bicarbonate to a final concentration of 20 mM. Samples were incubated for 10 minutes before SDS-PAGE analysis was performed (data not shown). Samples for MALDI-TOF-MS measurements were desalted by ZipTip C4 (Millipore) and desalted protein was eluted with 70% (v/v) acetonitrile / 1% (v/v) formic acid. Each sample was mixed with a saturated solution of sinapinic acid (in 50% (v/v) methanol / 0.1% (v/v) TFA) at 1:1 ratio and spotted onto the MALDI target. […]

[5] = molecular target: T2, His-tagged CIB2, human (TEV protease recognition site and His tag kept) (human, UniProt O75838 1-187); experiment: SPR; His-tagged CIB2 captured by its His tag on a His-cap chip, then blocked via amine coupling; α7B_M titrated 230 nM-30 µM in the presence of 1 mM Mg2+ without Ca2+; bivalent analyte model and steady state analysis; apparent constants; settings: both partners purified
T2 construct: It was used only in the SPR experiments where CIB2 was captured by its His tag; also called His-CIB2
T2 sequence (looked up): T1 sequence (O75838 1-187)

[6] = molecular target: T3, Calcium- and Integrin-Binding protein 2 (CIB2), human, untagged (human, UniProt O75838 1-187); experiment: cross-linking; 10 µM CIB2 incubated with 5, 10 or 20 µM peptide, then 50-fold molar excess of DSBU for 20 min at room temperature; 20 mM HEPES pH 7.5, 1 mM DTT, 1 mM Mg2+, 2 mM Ca2+; read by MALDI-TOF-MS of the intact protein; settings: both partners purified
T3 construct: measured mass 21,767 Da by native ESI-MS; The printed mass (21.7 kDa) fits the whole protein; Residues may remain after TEV cleavage of the His tag; also called untagged CIB2; uncoupled CIB2
T3 sequence (looked up): T1 sequence (O75838 1-187)

[7] = molecular target: T2, His-tagged CIB2, human (TEV protease …); experiment: SPR; His-tagged CIB2 captured by its His tag on a His-cap chip, then blocked via amine coupling; peptides injected (7.5 µM; α7B_M titrated 230 nM-30 µM); 20 mM HEPES pH 7.5, 150 mM KCl, 1 mM DTT, 1 mM Mg2+, 2 mM Ca2+, 50 µM EDTA, 0.005% Tween; bivalent analyte model and steady state analysis; apparent constants; settings: both partners purified
integrin α7B peptide [8] = molecular target: integrin α7B peptide (Homo sapiens, UniProt Q13683, Mg2+ and Ca2+); experiment: SPR
integrin α7B peptide [9] = molecular target: integrin α7B peptide (Homo sapiens, UniProt Q13683, Mg2+); experiment: SPR
CIB2 [10] = experiment: Near-UV circular dichroism; assay type: physicochemical, human; settings: 20-30 µM, 37 °C, EGTA, 1 mM Mg^2+, 2 mM Ca^2+; 20 mM HEPES pH 7.5
Protocol: CIB2 tertiary structure was investigated by using a Jasco J-710 spectropolarimeter equipped with a Peltier type cell holder as previously described. Briefly: near-UV (250–320 nm) CD spectra of 20 μM of sole CIB2 or CIB2/α7B_M complexes (1:1 and 1:2 ratios) were collected in the presence of 500 μM EGTA and after sequential additions of 1 mM Mg^2+ and 2 mM free Ca^2+. A 1 cm quartz cuvette was used, temperature was set at 37 °C, integration time and data pitch were set to 4 s and 1 nm, respectively. Each spectrum represents the average of 5 accumulations. […]
Figure S4: Structural comparison of His-CIB2 (A) and CIB2 (B). Near-UV CD spectra (250-320 nm) of 20-30 µM CIB2 were collected at 37°C in a quartz cuvette with 1 cm length path. Sequential additions of 500 µM EGTA (black), 1 mM Mg2+ (blue) and 2 mM Ca2+ (red) were performed. Near-UV CD spectra of the buffer (20 mM HEPES pH 7.5, 150 mM KCl, 1 mM DTT) was considered as blank and subtracted. Each spectrum represents the mean of 5 accumulations. Data were normalized according to the protein concentration and the number of residues (Molar Residue Ellipticity, MRE).
Figure S5: Near-UV CD spectra of CIB2 in the presence of different stoichiometric ratios of alpha7B_M peptide. Near-UV CD spectra (250-320nm) of 20 μM CIB2 in the absence of peptide (black lines) and in the presence of two different protein/peptide ratios (1:1 blue lines; 1:2 red lines) collected at 37°C in the presence of 500 μM EGTA (A) and after sequential additions of 1 mM Mg2+ (B) and 2 mM free Ca2+ (C). The spectrum of alpha7B_M peptide in the absence of CIB2 is shown in dashed grey lines. […]

Chain of integrin αIIb peptide (Homo sapiens) (P08514 1014-1039): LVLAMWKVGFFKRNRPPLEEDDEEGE

## CIB1 (from UniProt Q99828)
[1]
  Kd: 12 µM

## KEFWGLHAKPRLKLMF [α7B_Scrb]
Human CIB2 [2]
  SPR interaction with CIB2: interact with low affinity
CIB2 [3]
  fluorescence titration of CIB2: some non-specific signal
Human CIB2 [4]
  CIB2/peptide complex formation, 1:1: only minor signals for a 1:1 complex

## LAADGHPELGPDGHPGPGTA [α7B_C, peptide covering the C-terminal region of the cytoplasmic domain of α7B integrin]
Human CIB2 [2]
  SPR interaction with CIB2: could not detect any interaction

B1: α7B_M peptide, membrane proximal segment of the cytoplasmic domain of α7B integrin (peptide)
peptide: Ac-LLLWKMGFFKRAKHPE-NH2
notes: integrin α7B, human, membrane proximal segment of the cytoplasmic domain; also called α7B peptide; source: synthetic peptide, bought: Genscript
[5]
  Kd: 210 µM
[6]
  stoichiometry N: 1 peptide per CIB2 and 2 peptides per CIB2
[7]
  Kd: 154 µM

B2: CIB2 (protein)
chain: T1 sequence (O75838 1-187)
Integrin α7B peptide [8]
  Kd: 25 µM
Integrin α7B peptide [9]
  Kd: 11.6 µM

B3: His-tagged CIB2: CIB2 with the TEV protease recognition site and the Histag kept (protein)
chain: T1 sequence (O75838 1-187)
modifications: left off: His tag, end not stated, kept | TEV protease recognition site (ENLYFQ), end not stated, kept
CIB2 [10]
  near-UV CD, tertiary structure vs untagged CIB2: substantially the same tertiary structure of the untagged protein

— publication PMC6803640, “Oligomeric state, hydrodynamic properties and target recognition of human Calcium and Integrin Binding protein 2 (CIB2)” (Scientific Reports, 2019)
